According to publication PMC3689955:

Target: XRCC4/Ligase IV (XL) (UniProt Q13426)
Sequence (Q13426 whole entry, chain 1 of 2): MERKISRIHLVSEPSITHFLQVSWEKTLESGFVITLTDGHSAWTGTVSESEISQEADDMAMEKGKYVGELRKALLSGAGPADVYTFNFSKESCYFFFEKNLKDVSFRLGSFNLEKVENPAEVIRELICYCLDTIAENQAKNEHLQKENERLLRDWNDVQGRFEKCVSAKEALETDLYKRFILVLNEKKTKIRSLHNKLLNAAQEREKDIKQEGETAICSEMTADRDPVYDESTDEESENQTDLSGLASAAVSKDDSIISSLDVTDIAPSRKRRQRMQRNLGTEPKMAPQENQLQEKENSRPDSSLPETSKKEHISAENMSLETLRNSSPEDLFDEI
Sequence (P49917 whole entry, chain 2 of 2, further chain): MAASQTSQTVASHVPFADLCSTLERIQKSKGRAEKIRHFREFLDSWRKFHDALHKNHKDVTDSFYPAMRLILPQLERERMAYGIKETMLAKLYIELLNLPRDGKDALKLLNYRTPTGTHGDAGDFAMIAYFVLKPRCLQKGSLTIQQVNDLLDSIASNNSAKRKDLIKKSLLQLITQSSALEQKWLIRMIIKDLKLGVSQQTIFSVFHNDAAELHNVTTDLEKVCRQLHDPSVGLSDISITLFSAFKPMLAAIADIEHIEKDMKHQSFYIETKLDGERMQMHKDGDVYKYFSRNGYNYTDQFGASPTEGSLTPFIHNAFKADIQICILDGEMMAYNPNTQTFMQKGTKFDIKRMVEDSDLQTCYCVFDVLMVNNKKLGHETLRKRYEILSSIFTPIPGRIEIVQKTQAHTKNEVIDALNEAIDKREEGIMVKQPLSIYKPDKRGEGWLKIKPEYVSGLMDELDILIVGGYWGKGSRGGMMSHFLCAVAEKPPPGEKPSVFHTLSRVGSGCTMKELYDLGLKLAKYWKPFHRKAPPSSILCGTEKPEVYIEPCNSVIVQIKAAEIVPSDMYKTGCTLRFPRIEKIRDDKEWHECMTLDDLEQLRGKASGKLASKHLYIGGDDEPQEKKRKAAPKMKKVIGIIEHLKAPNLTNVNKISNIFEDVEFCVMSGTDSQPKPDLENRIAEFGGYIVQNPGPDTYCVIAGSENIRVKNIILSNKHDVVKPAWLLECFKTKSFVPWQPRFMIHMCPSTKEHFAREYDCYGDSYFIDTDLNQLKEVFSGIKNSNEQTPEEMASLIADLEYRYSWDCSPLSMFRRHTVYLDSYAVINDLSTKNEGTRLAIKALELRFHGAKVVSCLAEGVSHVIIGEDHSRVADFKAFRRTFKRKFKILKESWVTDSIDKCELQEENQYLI

XRCC4-like factor (XLF, also known as Cernunnos), sequence (Q9H9Q4 whole entry): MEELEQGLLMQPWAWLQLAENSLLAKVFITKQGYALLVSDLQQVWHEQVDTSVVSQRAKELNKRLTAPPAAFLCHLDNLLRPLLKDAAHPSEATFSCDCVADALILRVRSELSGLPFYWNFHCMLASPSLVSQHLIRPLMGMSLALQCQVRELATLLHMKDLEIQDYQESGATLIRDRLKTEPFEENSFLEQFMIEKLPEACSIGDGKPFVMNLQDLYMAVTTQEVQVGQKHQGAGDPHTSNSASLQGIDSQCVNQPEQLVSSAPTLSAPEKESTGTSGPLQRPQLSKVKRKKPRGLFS

XRCC4-like factor (XLF, also known as Cernunnos) (from UniProt Q9H9Q4 1-299) (natural protein)
stoichiometry N (XL to XLF molar ratio): 1
